Data: US6512102B1, “Compositions and methods of diagnosis and treatment using casein kinase I” (Chiron Corporation, priority 1998, dated 2003)

B1: CKI lys→arg 38: kinase-inactive CKIε construct in which lysine 38 in the kinase domain was mutated to arginine (protein)
chain: MELRVGNKYRLGRKIGSGSFGDIYLGANIASGEEVAIRLECVKTKHPQLHIESKFYKMMQGGVGIPSIKWCGAEGDYNVMVMELLGPSLEDLFNFCSRKFSLKTVLLLADQMISRIEYIHSKNFIHRDVKPDNFLMGLGKKGNLVYIIDFGLAKKYRDARTHQHIPYRENKNLTGTARYASINTHLGIEQSRRDDLESLGYVLMYFNLGSLPWQGLKAATKRQKYERISEKKMSTPIEVLCKGYPSEFSTYLNFCRSLRFDDKPDYSYLRQLFRNLFHRQGFSYDYVFDWNMLKFGAARNPEDVDRERREHEREERMGQLRGSATRALPPGPPTGATANRLRSAAEPVASTPASRIQQTGNTSPRAISRADRERKVSMRLHRGAPANVSSSDLTGRQEVSRLAASQTSVPFDHLGK
modifications: Mus Casein Kinase I epsilon
B2: Wnt-1: Wnt-1 expressed from transfected plasmid (protein, UniProt P04628 28-370, looked up)
Proto-oncogene Wnt-1: ANSSGRWWGIVNVASSTNLLTDSKSLQLVLEPSLQLLSRKQRRLIRQNPGILHSVSGGLQSAVRECKWQFRNRRWNCPTAPGPHLFGKIVNRGCRETAFIFAITSAGVTHSVARSCSEGSIESCTCDYRRRGPGGPDWHWGGCSDNIDFGRLFGREFVDSGEKGRDLRFLMNLHNNEAGRTTVFSEMRQECKCHGMSGSCTVRTCWMRLPTLRAVGDVLRDRFDGASRVLYGNRGSNRASRAELLRLEPEDPAHKPPSPHDLVYFEKSPNFCTYSGRLGTAGTAGRACNSSSPALDGCELLCCGRGHRTRTQRVTERCNCTFHWCCHVSCRNCTHTRVLHECL

Columns and labels:
[1] = system: Lef-1 dependent transcription; assay: Lef-1 enhancer luciferase reporter assay in Cos cells; format: cell-based; conditions: for Wnt signal transduction (Lef-luciferase): variant co-transfected with Wnt-1; for signal transduced by dominant negative GSK3 (DNGSK3): variant co-transfected with dominant negative GSK3 and Lef-1; for luciferase activity transduced by Dvl-1: variant with Dvl-1
Experimental: (§1) Combinations of Wnt-1, CKIε, CKI kinase dead variant (lys→arg 38) and Lef-1 were transfected into Cos cells with a luciferase gene driven by multiple copies of Lef enhancer elements. As an internal control of transfection efficiency, the β-galactosidase gene driven by the SV40 promoter was co-transfected in all samples. 24 hours after transfection, cells were lysed and the lysate was tested for luciferase activity. The luciferase activity was normalized with respect to β-galactosidase activity. […] Dorsoanterior index (DAI) grade numbers were assigned to the phenotypes of the embryos. A grade 5 embryo is normal; a grade 3 embryo is cyclopic (one eye); a grade 1 embryo has a tail fin and somites but no head (acephalic); and a grade 0 embryo has no dorsoanterior structures (Kao et al., 1988).
The effect of CKI on Lef-1 dependent transcription in Cos mammalian cells was examined. A luciferase reporter gene driven by multiple copies of the Lef-I enhancer sequence was used. When only Wnt-I or lef-I or CKIε was transfected with the reporter construct, luciferase activity was induced only 2 to 3 fold (FIG. 1A). When Lef-1 was cotransfected with either Wnt-1 or CKIε, luciferase activity was induced 30 or 12 fold respectively.
Luciferase reporter plasmid contains multiple Lef-I enhancer sites upstream of the fos basal promoter. Various DNA plasmids encoding Wnt-1, CKIε , Dvl-1, GSK3 etc. were co-transfected with a luciferase reporter plasmid and a SV40 β-galactosidase plasmid into 24-well Cos cell culture. For each well, 0.5 μg total DNA was in a ratio of 0.08 μg:016 μg:0.02 μg for signaling molecules:luciferase: β-gal. SV40 β-gal construct was used as an internal transfection control, since β-gal activity is independent of the Wnt-1 signaling molecules. Transfection was done using LT1 (5 μl/μg DNA) (Panvera Co. # MIR23 10). Each sample was transfected in triplex repeats to obtain a statistical value. After 24 hours, cells were washed once with PBS and lysed in 50 μl/well lysis buffer supplied with the luciferase assay kit (Promega cat# EI500). 10 μl of each sample was aliquoted into two sets of tubes, one set for the luciferase assay and another for β-gal chemiluminescent reporter assay (Galacto-Light, TROPIX Inc. #BL100G). The result of the luciferase assay was divided by the corresponding β-gal activity, and then averaged.

[2] = system: ventralized Xenopus embryo; assay: Rescue of dorsal structure of ventralized Xenopus embryos by injected RNA; format: in vivo; conditions: RNA injected into ventralized embryos
Experimental: as §1
Furthermore, when the variant was co-transfected with CKIε into Cos cells, Lef-1-dependent luciferase activity was inhibited. […] Thus, the variant interferes with Wnt signaling, acting as a dominant negative.

casein = assay: Kinase activity of construct transfected into Cos cells, casein as substrate; format: biochemical; conditions: substrate casein protein
Experimental: It was transiently transfected into Cos cells and its activity was tested using substrate casein protein.

[3] = system: Lef-1 reporter gene activity; assay: Lef-1 reporter gene assay in 293 cells after antisense transfection; format: cell-based; conditions: Wnt-1 expressed in 293 cells
Experimental: FIGS. 4A-C Lef-1 reporter gene activity induced by Wnt (A), Dv1-3 (B), or mutant β-catenin (C) is inhibited by CKIε antisense polynucleotides (CKI-a and CKI-b), but not by the reverse sequence control (RC). 293 cells were plated at a density of 1.5*10^5 cells per 12-well dish 16 hours prior to transfection 6 ul 0.5 mM cationic lipitoid and 2 ul 100 uM polynucleotide in 50 ul opti-MEM (Life Technologies) was mixed together and added dropwise to cells in 1 ml of fresh media. After 24 hours cells, cells were washed with opti-MEM and transfected with luciferase reporter plasmids (0.02 mg lef-1, 0.2 lef-1 reporter, 0.03 mg renilla luciferase) control using lipofectamine (Life Technologies). Cells were assayed for luciferase activity 48 hours after transfection of antisense polynucleotides.
One method for measuring activation of gene expression by the Wnt pathway is to use the Lef-1 reporter gene assay. Antisense polynucleotides were transfected into cells by using cationic peptoid reagents followed by transfection with Lef-1, Lef-1 reporter, and Wnt-1 plasmids using lipofectamine (Life Technologies). Lef-1 reporter gene activity was measured using the Dual-Luciferase Reporter Assay System (Promega) according to the manufacturers specifications. […]

Molecule | Lef-1-dependent luciferase activity ([1]; variant co-transfected with CKIε) | Wnt signal transduction (Lef-luciferase) [1] | Wnt signal transduction (Lef-luciferase) ([1]; listed as CKIKD) | signal transduced by dominant negative GSK3 (DNGSK3) [1] | signal transduced by dominant negative GSK3 (DNGSK3) ([1]; listed as variant) | luciferase activity transduced by Dvl-1 [1] | luciferase activity transduced by Dvl-1 ([1]; listed as variant) | rescue of embryonic dorsal structure [2] | kinase activity (casein) | stimulation of Lef-1 reporter gene transcription over vector transfected cells [3] | luciferase activity induced ([1]; cotransfected with Lef-1, Cos cells)
B1 | inhibited | blocked the Wnt signal transduction in a dose-dependent manner | inhibits Wnt signaling | did not inhibit the signal | did not reduce the signal | inhibited | inhibited the effect of Dv1-1 on luciferase activity | failed to do so | no detectable kinase activity | – | –
B2 | – | – | – | – | – | – | – | – | – | 4-6 fold | 30 fold
